Experimental data reported in the supplement of paper PMC7877785.
± gives the uncertainty stated by the source.

Test: self-splicing fitness, log relative to wild type (ln ratio); higher = more splicing; Tetrahymena group I intron in knt gene, E. coli kanamycin selection, DiMSum; sequences stand for … in CUCUCU…GGAGGGAAAAGUUAUCAGGCAUGCACCUGGUAGCUAGUCUUUAAACCAAUAGAUUGCAUCGGUUUAAAAGGCAAGACCGUCAAAUUGCGGGAAAGGGGUCAACAGCCGUUCAGUACCAAGUCUCAGGGGAAACUUUGAGAUGGCCUUGCAAAGGGUAUGGUAAUAAGCUGACGGACAUGGUCCUAACCACGCAGCCAAGUCCUAAGUCAACAGAUCUUCUGUUGAUAUGGAUGCAGUUCACAGACUAAAUGUCGGUCGGGGAAGAUGUAUUCUUCUCAUAAGAUAUAGUCGGACCUCUCCUUAAUGGGAGCUAGCGGAUGAAGUGAUGCAACACUGGAGCCGCUGGGAACUAAUUUGUAUGCGAAAGUAUAUUGAUUAGUUUUGGAGUACUCGUGGUCG
In short: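 The eight P1ex-region nucleotides of an intron in the knt kanamycin-resistance gene on pET-22b(+) were all randomised and the library put into E. coli BL21(DE3). Six replicate transformations were grown overnight at 37°C or 30°C on LB agar with or without 25 μg/mL kanamycin, together with 100 μg/mL carbenicillin, 50 μM IPTG and 0.2% rhamnose. Colonies were pooled and amplicon-sequenced on an Illumina HiSeq 2500. Fitness from DiMSum is the error-weighted combination of wild-type-normalised replicate fold changes, kanamycin over none.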

Sequence	self-splicing fitness (ln) (30 °C)	self-splicing fitness (ln) (37 °C)
CGGUAGCAAUAUUACGGCGA	-2.69 ± 0.27	-2.13 ± 0.26
CGGUAGCAAUAUUACGGGCC	-3.47 ± 0.36	
CGGUAGCAAUAUUACGGUAC		-1.22 ± 0.42
CGGUAGCAAUAUUACGGUCG	-2.62 ± 0.21	-1.65 ± 0.25
CGGUAGCAAUAUUACGUAUA	-3.71 ± 0.24	-2.53 ± 0.18
CGGUAGCAAUAUUACGUAUC	-2.67 ± 0.15	-2.83 ± 0.29
CGGUAGCAAUAUUACGUCAC	-2.59 ± 0.34	-1.82 ± 0.48
CGGUAGCAAUAUUACGUCUU	-0.667 ± 0.1	0.17 ± 0.12
CGGUAGCAAUAUUACGUGAC		-2.73 ± 0.41
CGGUAGCAAUAUUACGUGGA	-4.03 ± 0.27	-2.26 ± 0.17
CGGUAGCAAUAUUACGUUCC	-4.16 ± 0.33	-1.9 ± 0.26
CGGUAGCAAUAUUACGUUGC	-2.1 ± 0.14	-2.85 ± 0.33
CGGUAGCAAUAUUACGUUUG	-0.275 ± 0.082	-0.027 ± 0.098
CGUAAGCAAUAUUACGAAAU	-3.16 ± 0.27	-1.86 ± 0.25
CGUAAGCAAUAUUACGAGCU	-3.7 ± 0.37	-2.53 ± 0.41
CGUAAGCAAUAUUACGAGUC	-2.82 ± 0.4	-1.92 ± 0.34
CGUAAGCAAUAUUACGCGAG	-1.63 ± 0.2	-2.56 ± 0.44
CGUAAGCAAUAUUACGCUGG	-1.56 ± 0.12	-0.793 ± 0.11
CGUAAGCAAUAUUACGCUUU	-3.21 ± 0.23	-2.31 ± 0.2
CGUAAGCAAUAUUACGGCCC		-1.43 ± 0.3

Sequence	self-splicing fitness (ln) (30 °C)	self-splicing fitness (ln) (37 °C)
CGUAAGCAAUAUUACGUAGU	-3.74 ± 0.27	-1.48 ± 0.18
CGUAAGCAAUAUUACGUGAU	-3.93 ± 0.31	-2.57 ± 0.24
CGUAAGCAAUAUUACGUGCU	-3.24 ± 0.21	-1.94 ± 0.21
CGUCAGCAAUAUUACGAAGA	-2.26 ± 0.19	-2.09 ± 0.23
CGUCAGCAAUAUUACGACAC	-1 ± 0.14	0.484 ± 0.13
CGUCAGCAAUAUUACGACUU	-0.191 ± 0.069	0.132 ± 0.08
CGUCAGCAAUAUUACGAGUG	-0.944 ± 0.056	-0.00372 ± 0.077
CGUCAGCAAUAUUACGAUCU	-1.09 ± 0.086	-0.0587 ± 0.11
CGUCAGCAAUAUUACGAUUC	-0.695 ± 0.096	0.147 ± 0.087
CGUCAGCAAUAUUACGAUUG	-0.506 ± 0.076	-0.162 ± 0.084
CGUCAGCAAUAUUACGCAGC	-3.34 ± 0.2	-2.26 ± 0.19
CGUCAGCAAUAUUACGCCCA	-0.52 ± 0.12	-0.0594 ± 0.14
CGUCAGCAAUAUUACGCGGU	-2.93 ± 0.16	-2.27 ± 0.19
CGUCAGCAAUAUUACGGAAC	-2.22 ± 0.27	-2.61 ± 0.25
CGUCAGCAAUAUUACGGGGG	-3.62 ± 0.2	-2.05 ± 0.14
CGUCAGCAAUAUUACGGUAA	-1.1 ± 0.26	-1.3 ± 0.23
CGUCAGCAAUAUUACGGUGU	-2.66 ± 0.12	-0.454 ± 0.1
CGUCAGCAAUAUUACGUAAA	-1.97 ± 0.06	-1.21 ± 0.097
CGUCAGCAAUAUUACGUAUA		-0.724 ± 0.16
